B1: Chikungunya/SL-CK1 E2 glycoprotein (natural protein)
chain: not shown

Columns and labels:
Test in all cases: SPR
[1] = target: B1
BiNb-2E8 = BiNb-2E8 (alpaca)
TriNb-3C5 = TriNb-3C5 (alpaca)
BiNb-3C5 = BiNb-3C5 (alpaca)
TriNb-2E8 = TriNb-2E8 (alpaca)

Row | Binder | koff [1] [s⁻¹] | koff (BiNb-2E8) [s⁻¹] | koff (TriNb-3C5) [s⁻¹] | koff (BiNb-3C5) [s⁻¹] | koff (TriNb-2E8) [s⁻¹]
1 | MoNb-3C5 (VHH) VHH: AVQLVESGGGLVQAGGSLRLSCAASGRSFSAYTMAWFRQAPGKEREWMASIVRSGGPTYYADSVKDRFTISRENARNTAYLQMNSLKPEDTAVYYCAADLGWTYSRSPELFGSWGQGTQVTVSS | 0.00991 | – | – | – | –
2 | B1 | – | 0.000352 | 0.00609 | 0.00549 | 0.00274

Source: PMC9107221 (2022)
